Experimental data from publication doi:10.1101/2025.09.05.674453.

What was measured:
[1] = target: Arginine-specific gingipain RgpB (Porphyromonas gingivalis) (UniProt P95493); assay: progress curve analysis of protease inhibition
[2] = target: Lysine-specific gingipain (Kgp), purified (Porphyromonas gingivalis) (UniProt Q51817); assay: progress curve analysis of protease inhibition
[3] = target: Arginine-specific gingipain RgpB (Porphyromonas gingivalis) (UniProt P95493); assay: titration of residual protease activity
[4] = target: Lysine-specific gingipain (Kgp), purified (Porphyromonas gingivalis) (UniProt Q51817); assay: titration of residual protease activity
[5] = target: Thiol protease (Tpr) (Porphyromonas gingivalis) (UniProt P25806); assay: progress curve analysis of protease inhibition
Chain of UniProt P25806 (P25806 whole entry): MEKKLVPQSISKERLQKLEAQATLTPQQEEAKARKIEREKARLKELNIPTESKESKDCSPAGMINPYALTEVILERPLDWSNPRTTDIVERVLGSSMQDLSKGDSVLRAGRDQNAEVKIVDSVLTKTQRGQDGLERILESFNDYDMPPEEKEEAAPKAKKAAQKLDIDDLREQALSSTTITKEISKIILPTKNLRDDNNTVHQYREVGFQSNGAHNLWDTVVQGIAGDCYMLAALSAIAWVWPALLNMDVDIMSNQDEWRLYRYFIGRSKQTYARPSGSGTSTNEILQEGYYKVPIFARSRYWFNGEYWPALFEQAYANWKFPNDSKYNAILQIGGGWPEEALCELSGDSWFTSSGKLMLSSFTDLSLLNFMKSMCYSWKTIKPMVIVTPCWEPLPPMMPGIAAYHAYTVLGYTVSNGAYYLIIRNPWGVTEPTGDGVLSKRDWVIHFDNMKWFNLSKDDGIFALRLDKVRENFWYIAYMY

[6] = target: Thiol protease (Tpr) (Porphyromonas gingivalis) (UniProt P25806); assay: titration of residual protease activity

Chain of UniProt Q51817 (Q51817 25-1732): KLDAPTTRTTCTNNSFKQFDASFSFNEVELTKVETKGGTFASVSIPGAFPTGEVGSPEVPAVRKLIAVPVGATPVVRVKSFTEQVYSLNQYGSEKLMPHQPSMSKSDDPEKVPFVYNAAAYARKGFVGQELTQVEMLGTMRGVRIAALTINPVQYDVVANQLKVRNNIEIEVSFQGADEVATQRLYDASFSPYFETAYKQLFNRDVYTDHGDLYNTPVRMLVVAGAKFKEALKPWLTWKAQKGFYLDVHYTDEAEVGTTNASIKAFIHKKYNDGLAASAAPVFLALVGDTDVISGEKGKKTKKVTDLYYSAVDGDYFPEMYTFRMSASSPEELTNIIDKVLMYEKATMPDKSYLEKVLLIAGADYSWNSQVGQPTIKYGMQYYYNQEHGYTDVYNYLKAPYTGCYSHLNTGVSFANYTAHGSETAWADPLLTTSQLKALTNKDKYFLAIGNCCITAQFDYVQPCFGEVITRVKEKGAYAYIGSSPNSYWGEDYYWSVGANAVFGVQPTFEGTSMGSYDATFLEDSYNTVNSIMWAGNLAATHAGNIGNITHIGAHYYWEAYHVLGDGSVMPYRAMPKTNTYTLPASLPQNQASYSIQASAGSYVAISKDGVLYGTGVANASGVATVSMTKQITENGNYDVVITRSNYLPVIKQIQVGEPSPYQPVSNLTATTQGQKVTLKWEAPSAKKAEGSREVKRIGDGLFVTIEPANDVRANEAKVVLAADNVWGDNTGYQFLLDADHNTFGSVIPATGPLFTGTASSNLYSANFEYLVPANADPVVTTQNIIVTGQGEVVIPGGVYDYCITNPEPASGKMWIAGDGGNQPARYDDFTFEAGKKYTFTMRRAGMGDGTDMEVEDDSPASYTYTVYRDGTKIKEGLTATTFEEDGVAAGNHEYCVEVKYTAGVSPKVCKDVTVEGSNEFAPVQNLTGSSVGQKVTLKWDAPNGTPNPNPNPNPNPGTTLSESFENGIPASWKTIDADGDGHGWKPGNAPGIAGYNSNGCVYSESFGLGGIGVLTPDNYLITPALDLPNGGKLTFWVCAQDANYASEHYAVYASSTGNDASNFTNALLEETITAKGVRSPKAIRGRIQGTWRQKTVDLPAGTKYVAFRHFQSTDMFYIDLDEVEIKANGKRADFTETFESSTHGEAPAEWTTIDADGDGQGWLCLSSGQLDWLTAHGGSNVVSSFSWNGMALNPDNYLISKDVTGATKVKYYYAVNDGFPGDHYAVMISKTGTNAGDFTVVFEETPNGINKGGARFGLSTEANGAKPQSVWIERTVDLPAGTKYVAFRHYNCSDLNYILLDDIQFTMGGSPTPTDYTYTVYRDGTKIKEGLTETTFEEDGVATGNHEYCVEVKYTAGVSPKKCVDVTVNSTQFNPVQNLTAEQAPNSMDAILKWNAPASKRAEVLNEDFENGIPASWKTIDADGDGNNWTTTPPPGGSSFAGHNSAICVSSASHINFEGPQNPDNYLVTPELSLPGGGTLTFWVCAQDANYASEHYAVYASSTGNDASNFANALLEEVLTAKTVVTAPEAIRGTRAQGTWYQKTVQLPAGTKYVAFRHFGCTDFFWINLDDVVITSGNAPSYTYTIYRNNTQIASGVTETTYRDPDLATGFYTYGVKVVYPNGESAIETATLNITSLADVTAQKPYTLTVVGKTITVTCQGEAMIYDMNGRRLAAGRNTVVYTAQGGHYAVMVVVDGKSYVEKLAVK
Chain of UniProt P95493 (P95493 25-736): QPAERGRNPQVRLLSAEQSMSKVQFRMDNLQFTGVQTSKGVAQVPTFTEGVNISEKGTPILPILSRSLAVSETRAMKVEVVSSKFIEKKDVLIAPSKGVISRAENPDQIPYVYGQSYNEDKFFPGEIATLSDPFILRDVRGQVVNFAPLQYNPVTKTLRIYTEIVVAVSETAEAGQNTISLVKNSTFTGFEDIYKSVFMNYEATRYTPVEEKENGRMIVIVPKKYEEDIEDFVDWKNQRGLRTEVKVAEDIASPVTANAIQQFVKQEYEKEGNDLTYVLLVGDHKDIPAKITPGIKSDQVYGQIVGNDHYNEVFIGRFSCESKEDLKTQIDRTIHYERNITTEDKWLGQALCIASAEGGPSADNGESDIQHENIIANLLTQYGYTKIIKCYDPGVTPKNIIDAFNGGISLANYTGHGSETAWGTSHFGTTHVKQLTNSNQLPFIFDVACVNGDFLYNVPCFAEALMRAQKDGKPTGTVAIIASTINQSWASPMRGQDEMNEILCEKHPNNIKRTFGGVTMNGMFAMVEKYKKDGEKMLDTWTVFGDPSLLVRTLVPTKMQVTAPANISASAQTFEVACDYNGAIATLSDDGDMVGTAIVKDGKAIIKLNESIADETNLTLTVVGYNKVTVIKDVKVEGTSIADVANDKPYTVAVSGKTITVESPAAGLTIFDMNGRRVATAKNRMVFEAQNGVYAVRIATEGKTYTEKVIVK

Substance | kon [1] | kon [2] | stoichiometry of inhibition (SI) [3] | stoichiometry of inhibition (SI) [4] | kon [5] | stoichiometry of inhibition (SI) [6]
RVK-miropin (natural protein) | 740000 M⁻¹ s⁻¹ | 330000 M⁻¹ s⁻¹ | 1.7 | 1.7 | – | –
Recombinant wild-type miropin (VKT-mir) (natural protein) | – | 220000 M⁻¹ s⁻¹ | – | 1.9 | 2500 M⁻¹ s⁻¹ | 9.3
